Results taken from patent US20090317363A1.
Changes are numbered by the printed parent chain.

B1: RANTES derivative: signature sequence SEQ ID NO: 45 fused to positions 10-68 of native RANTES (SEQ ID NO: 1) (ligand)
chain: QGPPLMSLTVCCFAYIARPLPRAHIKEYFYTSGKCSNPAVVFVTRKNRQVCANPEKKWVREYINSLEMS
B2: RANTES derivative: signature sequence SEQ ID NO: 7 fused to positions 10-68 of native RANTES (SEQ ID NO: 1) (ligand)
chain: B1 chain with S7W, L8T, T9Q
B3: RANTES derivative: signature sequence SEQ ID NO: 33 fused to positions 10-68 of native RANTES (SEQ ID NO: 1) (ligand)
chain: B1 chain with L5M, S7A, L8G, T9L, V10S
B4: RANTES derivative: signature sequence SEQ ID NO: 51 fused to positions 10-68 of native RANTES (SEQ ID NO: 1) (ligand)
chain: B1 chain with M6Q, S7W, L8T, T9Q
B5: RANTES derivative: signature sequence SEQ ID NO: 31 fused to positions 10-68 of native RANTES (SEQ ID NO: 1) (ligand)
chain: B1 chain with M6S, S7W, T9Q, V10S
B6: RANTES derivative: signature sequence SEQ ID NO: 41 fused to positions 10-68 of native RANTES (SEQ ID NO: 1) (ligand)
chain: B1 chain with S7N, T9Q
B7: RANTES derivative: signature sequence SEQ ID NO: 44 fused to positions 10-68 of native RANTES (SEQ ID NO: 1) (ligand)
chain: B1 chain with T9A
B8: RANTES derivative: signature sequence SEQ ID NO: 57 fused to positions 10-68 of native RANTES (SEQ ID NO: 1) (ligand)
chain: B1 chain with S7G, T9S
B9: RANTES derivative: signature sequence SEQ ID NO: 32 fused to positions 10-68 of native RANTES (SEQ ID NO: 1) (ligand)
chain: B1 chain with L5G, M6Q, S7W, L8S, T9Q
B10: RANTES derivative: signature sequence SEQ ID NO: 36 fused to positions 10-68 of native RANTES (SEQ ID NO: 1) (ligand)
chain: B1 chain with M6Q, S7W, L8R, T9Q, V10S
B11: RANTES derivative: signature sequence SEQ ID NO: 30 fused to positions 10-68 of native RANTES (SEQ ID NO: 1) (ligand)
chain: B1 chain with M6S, S7W, T9Q
B12: RANTES derivative: signature sequence SEQ ID NO: 59 fused to positions 10-68 of native RANTES (SEQ ID NO: 1) (ligand)
chain: B1 chain with L5G, M6Q, S7W, L8Y, T9Q, V10S
B13: RANTES derivative: signature sequence SEQ ID NO: 5 fused to positions 10-68 of native RANTES (SEQ ID NO: 1) (ligand)
chain: B1 chain with S7W, L8T, T9Q, V10S
B14: RANTES derivative: signature sequence SEQ ID NO: 62 fused to positions 10-68 of native RANTES (SEQ ID NO: 1) (ligand)
chain: B1 chain with L8T, T9Q
B15: RANTES derivative: signature sequence SEQ ID NO: 60 fused to positions 10-68 of native RANTES (SEQ ID NO: 1) (ligand)
chain: B1 chain with M6Q, S7W, L8M, T9Q, V10A
B16: RANTES derivative: signature sequence SEQ ID NO: 53 fused to positions 10-68 of native RANTES (SEQ ID NO: 1) (ligand)
chain: B1 chain with S7W, L8S, T9Q
B17: RANTES derivative: signature sequence SEQ ID NO: 58 fused to positions 10-68 of native RANTES (SEQ ID NO: 1) (ligand)
chain: B1 chain with S7T, T9Q
B18: RANTES derivative: signature sequence SEQ ID NO: 52 fused to positions 10-68 of native RANTES (SEQ ID NO: 1) (ligand)
chain: B1 chain with S7A, T9S
B19: RANTES derivative: signature sequence SEQ ID NO: 43 fused to positions 10-68 of native RANTES (SEQ ID NO: 1) (ligand)
chain: B1 chain with L5M, M6Q, S7G, L8G, T9L, V10S

These binders were tested against CCR5 (UniProt P51681) (assay: cell-based or functional assay).
For B1, the CCR5 sequestration (%) (% of control surface CCR5) was 62, the CCR5 signalling (%) (% of Emax of PSC-RANTES) was 77.4 and the anti-HIV potency (IC50, nM) by cell fusion assay was 0.02 nM.
With B2 the CCR5 sequestration (%) (% of control surface CCR5) was 10, the CCR5 signalling (%) (% of Emax of PSC-RANTES) was 0.7 and the anti-HIV potency (IC50, nM) by cell fusion assay was 0.02 nM. It also gave an anti-HIV potency (IC50, nM) by viral replication assay of 0.179 nM.
Binder B3 has a CCR5 sequestration (%) (% of control surface CCR5) of 0, a CCR5 signalling (%) (% of Emax of PSC-RANTES) of 0.2 and an anti-HIV potency (IC50, nM) by cell fusion assay of 0.03 nM.
In the case of B4, the CCR5 sequestration (%) (% of control surface CCR5) is reported as 12, the CCR5 signalling (%) (% of Emax of PSC-RANTES) is reported as 5 and the anti-HIV potency (IC50, nM) by cell fusion assay is reported as 0.02 nM.
B5 gave a CCR5 sequestration (%) (% of control surface CCR5) of 6, a CCR5 signalling (%) (% of Emax of PSC-RANTES) of 3.6 and an anti-HIV potency (IC50, nM) by cell fusion assay of 0.02 nM.
B6 was tested, and the CCR5 sequestration (%) (% of control surface CCR5) was 9, the CCR5 signalling (%) (% of Emax of PSC-RANTES) was 0 and the anti-HIV potency (IC50, nM) by cell fusion assay was 0.12 nM.
In the case of B7, the CCR5 sequestration (%) (% of control surface CCR5) is reported as 60, the CCR5 signalling (%) (% of Emax of PSC-RANTES) is reported as 68.5 and the anti-HIV potency (IC50, nM) by cell fusion assay is reported as 0.02 nM.
Work on B8 yielded a CCR5 sequestration (%) (% of control surface CCR5) of 18, a CCR5 signalling (%) (% of Emax of PSC-RANTES) of 4.9 and an anti-HIV potency (IC50, nM) by cell fusion assay of 0.16 nM.
Work on B9 yielded a CCR5 sequestration (%) (% of control surface CCR5) of 5, a CCR5 signalling (%) (% of Emax of PSC-RANTES) of 6 and an anti-HIV potency (IC50, nM) by cell fusion assay of 0.03 nM.
With B10 the CCR5 sequestration (%) (% of control surface CCR5) was 7, the CCR5 signalling (%) (% of Emax of PSC-RANTES) was 5.1 and the anti-HIV potency (IC50, nM) by cell fusion assay was 0.05 nM.
Work on B11 yielded a CCR5 sequestration (%) (% of control surface CCR5) of 4, a CCR5 signalling (%) (% of Emax of PSC-RANTES) of 4.1 and an anti-HIV potency (IC50, nM) by cell fusion assay of 0.01 nM.
B12 was tested, and the CCR5 sequestration (%) (% of control surface CCR5) was 15, the CCR5 signalling (%) (% of Emax of PSC-RANTES) was 6 and the anti-HIV potency (IC50, nM) by cell fusion assay was 0.23 nM.
With B13 the CCR5 sequestration (%) (% of control surface CCR5) was 0, the CCR5 signalling (%) (% of Emax of PSC-RANTES) was 5.3 and the anti-HIV potency (IC50, nM) by cell fusion assay was 0.02 nM. For the same binder, the anti-HIV potency (IC50, nM) by viral replication assay was 0.576 nM.
In the case of B14, the CCR5 sequestration (%) (% of control surface CCR5) is reported as 45, the CCR5 signalling (%) (% of Emax of PSC-RANTES) is reported as 29.6 and the anti-HIV potency (IC50, nM) by cell fusion assay is reported as 0.03 nM.
With B15 the CCR5 sequestration (%) (% of control surface CCR5) was 8, the CCR5 signalling (%) (% of Emax of PSC-RANTES) was 11.8 and the anti-HIV potency (IC50, nM) by cell fusion assay was 0.02 nM.
For B16, the CCR5 sequestration (%) (% of control surface CCR5) was 16, the CCR5 signalling (%) (% of Emax of PSC-RANTES) was 5.1 and the anti-HIV potency (IC50, nM) by cell fusion assay was 0.02 nM.
For B17, the CCR5 sequestration (%) (% of control surface CCR5) was 25, the CCR5 signalling (%) (% of Emax of PSC-RANTES) was 0.7 and the anti-HIV potency (IC50, nM) by cell fusion assay was 0.23 nM.
B18 showed a CCR5 sequestration (%) (% of control surface CCR5) of 11, a CCR5 signalling (%) (% of Emax of PSC-RANTES) of 8.3 and an anti-HIV potency (IC50, nM) by cell fusion assay of 0.02 nM.
With B19 the CCR5 sequestration (%) (% of control surface CCR5) was 4, the CCR5 signalling (%) (% of Emax of PSC-RANTES) was 0.3 and the anti-HIV potency (IC50, nM) by cell fusion assay was 0.29 nM.
